Assay results published in patent US20240287172A1 (SCIRHOM, published 2024).
Residue numbers refer to the chain shown, from its start.

B1: antibody 34 (antibody, V domains shown)
VH: QVTLKESGPGILQPSQTLSLTCSFSGFSLSTFSLGVGWIRQSSGKGLEWLAHIWWDDEKYYNPALKSRLTISKDTSKNQVFLKIANVDAADTATYYCARAYYSKSYYALDYWGQGTSVTVSS
VL: DIQMTQSPSSLSASLGERVSLTCRASQEISGYLSWLQQKPDGTIKRLIYAASTLDSGVPKRFSGSRSGSDYSLAISSLESEDFADYYCLQYANFPFTFGSGTKLEIK
notes: mouse IgG, kappa light chain; also called clone #34; purified antibody 34
B2: antibody 5 (antibody, V domains shown)
VH: QVTLKESGPGILQPSQTLSLTCSFSGFSLSTFGMGVGWIRQPSGKGLEWLAHIWWDDEKYYNSALKSRLTISKATSKNQAFLKIANVDTADTATYYCARISNYGSNYWYFNVWGTGTTVTVSS
VL: QVVLTQSPALMSASPGEKVTMTCSAGSSVSCMYWYQQKPGSSPRVLIYDTSNLASGVPARFTGSGSGTSYSLTISRMEAEDAASYYCQQWNSYPLTFGAGTKLELK
notes: mouse IgG, kappa light chain; also called clone #5; purified antibody 5
B3: antibody 44 (antibody, V domains shown)
VH: B2 VH with G44E, E58D, S63P, A74D, A80I, A85T, D91E, A98S, S101G, N111D
VL: QIVLTQSPAVMSASPGEKVTMTCTASSSVYYMYWYQQTPGSSPRLLIYDTSNLASGVPVRFSGSGSGTSYSLTISRMEAEDAATYYCQQWNTYPLTFGAGTKLELK
notes: mouse IgG, kappa light chain; also called clone #44; purified antibody 44
B4: antibody 42 (antibody, V domains shown)
VH: B2 VH with F24L, M34R, S63P, A74D, A80V, K83R, S101Q, N111D
VL: LIVLTQSPAIMSASPGEKVTMTCGATSRISYMFWYQQKPGSSPRVLIYDTSNLASGVPVRFSGSGSGTSYSLTISRVEAEDVATYYCQQWNSYPLTFGAGTKLELK
notes: mouse IgG, kappa light chain; also called clone #42; purified antibody 42
B5: antibody 43 (antibody, V domains shown)
VH: B2 VH with T3A, P42S, H52N, E58D, S63P, A74D, T75A, S101G, N111D
VL: B4 VL with L1Q, K18R, G24S, T26N, F33Y, V45L, V77M, V82A, Y86N, N91S
notes: mouse IgG, kappa light chain; also called clone #43; purified antibody 43
B6: antibody 22 (antibody, V domains shown)
VH: B2 VH with A80V
VL: B2 VL with C31Y, S84T
notes: mouse IgG, kappa light chain; also called clone #22; purified antibody 22

Molecular target: T1, hiR2-FL-S537E-T7 (human, UniProt Q6PJF5 1-856)
T1 sequence: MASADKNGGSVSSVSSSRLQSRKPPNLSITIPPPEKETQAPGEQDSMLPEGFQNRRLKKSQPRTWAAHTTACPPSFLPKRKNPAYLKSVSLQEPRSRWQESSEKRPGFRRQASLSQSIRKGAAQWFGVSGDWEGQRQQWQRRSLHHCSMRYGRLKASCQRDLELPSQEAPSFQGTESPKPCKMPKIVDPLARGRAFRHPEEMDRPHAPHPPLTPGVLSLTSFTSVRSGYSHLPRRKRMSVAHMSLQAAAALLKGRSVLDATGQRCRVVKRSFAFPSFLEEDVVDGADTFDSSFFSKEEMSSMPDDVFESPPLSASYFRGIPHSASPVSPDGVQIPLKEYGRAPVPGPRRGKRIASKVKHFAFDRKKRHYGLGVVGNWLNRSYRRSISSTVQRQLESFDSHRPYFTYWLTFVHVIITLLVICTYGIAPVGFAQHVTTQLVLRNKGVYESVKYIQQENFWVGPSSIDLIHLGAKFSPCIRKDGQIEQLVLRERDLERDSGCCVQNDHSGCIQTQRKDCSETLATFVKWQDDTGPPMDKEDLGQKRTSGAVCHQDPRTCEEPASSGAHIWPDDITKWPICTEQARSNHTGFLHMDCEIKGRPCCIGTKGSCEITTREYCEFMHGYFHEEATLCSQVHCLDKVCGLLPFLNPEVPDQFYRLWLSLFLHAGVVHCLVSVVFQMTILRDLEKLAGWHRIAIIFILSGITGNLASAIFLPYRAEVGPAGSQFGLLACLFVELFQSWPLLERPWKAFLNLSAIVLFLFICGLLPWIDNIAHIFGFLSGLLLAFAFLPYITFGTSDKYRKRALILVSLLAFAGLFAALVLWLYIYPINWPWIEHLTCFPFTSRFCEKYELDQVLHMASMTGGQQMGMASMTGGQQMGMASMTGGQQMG
Assay: FACS, MEF-DKO cells, 3 µg/ml

Row | Binder | loss of binding vs wild type
1 | B1 | ≥ 95%
2 | B2 | ≥ 95%
3 | B3 | ≥ 60%
4 | B4 | ≥ 60%
5 | B5 | ≥ 60%
6 | B6 | ≥ 60%
